Among the data in PMC5461540 (2017) are Kd values, retold here.

To fix the notation:
T1: FITC labeled MST1 pT329 phosphopeptide (human, UniProt Q13043, phosphothreonine at 329; FITC label (position not given))
T1 sequence (Q13043 whole entry, looked up): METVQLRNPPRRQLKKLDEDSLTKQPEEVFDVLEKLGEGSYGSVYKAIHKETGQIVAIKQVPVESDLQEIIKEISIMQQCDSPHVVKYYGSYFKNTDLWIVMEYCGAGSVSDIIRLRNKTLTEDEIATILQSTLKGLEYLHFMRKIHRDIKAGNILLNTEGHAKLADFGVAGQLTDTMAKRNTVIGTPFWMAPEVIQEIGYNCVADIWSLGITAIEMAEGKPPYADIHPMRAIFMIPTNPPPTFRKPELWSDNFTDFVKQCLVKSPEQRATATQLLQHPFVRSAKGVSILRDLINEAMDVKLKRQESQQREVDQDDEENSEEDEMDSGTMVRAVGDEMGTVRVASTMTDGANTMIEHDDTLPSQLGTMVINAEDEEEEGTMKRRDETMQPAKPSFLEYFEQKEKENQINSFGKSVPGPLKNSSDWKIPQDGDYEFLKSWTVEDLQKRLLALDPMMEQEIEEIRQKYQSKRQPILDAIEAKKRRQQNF

T2: FITC labeled MST1 pT340 phosphopeptide (human, UniProt Q13043, phosphothreonine at 340; FITC label (position not given))
T2 sequence (Q13043 whole entry, looked up): T1 sequence (Q13043 whole entry, looked up)

T3: FITC labeled MST1 pT380 phosphopeptide (human, UniProt Q13043, phosphothreonine at 380; FITC label (position not given))
T3 sequence (Q13043 whole entry, looked up): T1 sequence (Q13043 whole entry, looked up)

T4: yeast Mob1 (yeast, UniProt P40484 79-314)
T4 chain: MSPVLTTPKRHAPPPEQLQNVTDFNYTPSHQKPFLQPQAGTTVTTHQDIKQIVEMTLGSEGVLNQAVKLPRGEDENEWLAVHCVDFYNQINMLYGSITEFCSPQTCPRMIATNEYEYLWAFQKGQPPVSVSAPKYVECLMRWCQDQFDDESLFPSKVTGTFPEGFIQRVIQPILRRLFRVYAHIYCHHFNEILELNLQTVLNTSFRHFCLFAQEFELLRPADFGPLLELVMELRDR

T5: MOB1B (tags cleaved) (human, UniProt Q7L9L4-2 2-216)
T5 chain: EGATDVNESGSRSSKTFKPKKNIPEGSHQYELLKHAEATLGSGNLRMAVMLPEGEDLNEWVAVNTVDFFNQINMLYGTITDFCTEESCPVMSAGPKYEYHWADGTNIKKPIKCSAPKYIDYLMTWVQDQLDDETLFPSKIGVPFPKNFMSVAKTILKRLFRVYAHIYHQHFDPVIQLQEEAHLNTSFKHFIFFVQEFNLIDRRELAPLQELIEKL

T6: MOB3C (human, UniProt Q70IA8 2-216)
T6 chain: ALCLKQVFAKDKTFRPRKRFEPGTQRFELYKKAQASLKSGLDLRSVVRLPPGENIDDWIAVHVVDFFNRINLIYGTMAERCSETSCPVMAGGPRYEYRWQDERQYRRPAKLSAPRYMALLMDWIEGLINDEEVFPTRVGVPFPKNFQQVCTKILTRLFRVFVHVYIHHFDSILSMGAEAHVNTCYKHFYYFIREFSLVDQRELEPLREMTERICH

T7: MOB3B (human, UniProt Q86TA1 2-216)
T7 chain: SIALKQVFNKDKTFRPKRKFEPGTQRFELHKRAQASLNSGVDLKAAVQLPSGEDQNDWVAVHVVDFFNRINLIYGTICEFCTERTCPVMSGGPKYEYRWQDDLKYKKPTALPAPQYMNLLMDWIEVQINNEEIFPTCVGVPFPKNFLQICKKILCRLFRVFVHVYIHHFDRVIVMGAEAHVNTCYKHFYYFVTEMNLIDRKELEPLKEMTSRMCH

T8: MOB3A (human, UniProt Q96BX8 2-217)
T8 chain: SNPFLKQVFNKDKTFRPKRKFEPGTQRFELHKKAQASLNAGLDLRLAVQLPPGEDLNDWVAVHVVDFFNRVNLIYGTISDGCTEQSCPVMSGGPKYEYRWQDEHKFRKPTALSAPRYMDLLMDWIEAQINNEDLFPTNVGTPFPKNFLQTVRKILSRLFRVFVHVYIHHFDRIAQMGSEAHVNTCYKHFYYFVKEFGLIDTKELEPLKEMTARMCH

B1: MOB1A wild-type (natural protein)
chain: SFLFSSRSSKTFKPKKNIPEGSHQYELLKHAEATLGSGNLRQAVMLPEGEDLNEWIAVNTVDFFNQINMLYGTITEFCTEASCPVMSAGPRYEYHWADGTNIKKPIKCSAPKYIDYLMTWVQDQLDDETLFPSKIGVPFPKNFMSVAKTILKRLFRVYAHIYHQHFDSVMQLQEEAHLNTSFKHFIFFVQEFNLIDRRELAPLQELIEKLGSKDR
B2: FITC labeled phosphorylated MST1 T353 peptide (peptide)
chain: VASTMTDGANTMIEH
modifications: also: phosphothreonine at 353 (place in peptide not given here), FITC label, position not given here
B3: FITC labeled phosphorylated MST1 T367 peptide (peptide)
chain: DDTLPSQLGTMVINA
modifications: also: phosphothreonine at 367 (place in peptide not given here), FITC label, position not given here

The target of assay [1] is T1, FITC labeled MST1 pT329 phosphopeptide. Briefly: FP.
In assay [2] the target is T2, FITC labeled MST1 pT340 phosphopeptide. The assay can be described thus: FP.
Assay [3] addresses T3, FITC labeled MST1 pT380 phosphopeptide. The assay can be described thus: FP.
The target is the same in assay [4]. Briefly: FP. This is another data set of the same source.
In assay [5] the target is T1, FITC labeled MST1 pT329 phosphopeptide. The assay can be described thus: FP. This is another data set of the same source.
Assay [6] has as its target T2, FITC labeled MST1 pT340 phosphopeptide. Briefly: FP. This is another data set of the same source.
For another assay, the target named is MST1 pT380/pT387 peptide. The assay can be described thus: FP; doubly phosphorylated pT380/pT387.
A further assay has as its target MST1 pT329/pT340 peptide. The assay can be described thus: FP; doubly phosphorylated pT329/pT340.
Assay [7] addresses T4, yeast Mob1. Briefly: FP.
In assay [8] the target is B1. The assay can be described thus: FP.
The target in assay [9] is B1. The assay can be described thus: FP.
The target of assay [10] is T4, yeast Mob1. Briefly: FP.
For the next assay, the target named is T5, MOB1B (tags cleaved). The assay can be described thus: FP.
A further assay concerns the target T6, MOB3C. Briefly: FP.
The target of a further assay is T7, MOB3B. Briefly: FP.
A further assay deals with T8, MOB3A. The assay can be described thus: FP.

Like-named read-outs stand apart in the source and are kept apart here. Where no end group is shown, it is not given here. [ ]: non-standard residue; d: D form. pS = N[C@@H](COP(=O)(O)O)C(=O)O

For the molecule B1, the Kd worked out at 46.5 µM in assay [1]; 66.1 µM in assay [2]; 185 µM in assay [3]; 186 µM in assay [4]; 47 µM in [5]; 66 µM in [6]. Moreover, the dissociation constant Kd with MST1 pT380/pT387 peptide was determined as 95 µM; with MST1 pT329/pT340 peptide it was 49 µM.

Regarding YH[pS]VVRYA (also: FITC label, position not given here) [optimized Nud1-like phosphoserine containing peptide (FITC labeled)], the equilibrium dissociation constant (Kd) with yeast Mob1 [7] was determined as 0.4 µM; with MOB1A wild-type [8], 30 µM.

In turn, B2 had a Kd with MOB1A wild-type [9] of 0.31 µM.

Regarding B3, the equilibrium dissociation constant (Kd) was 0.58 µM with MOB1A wild-type [9]; 29.3 µM with yeast Mob1 [10]; 0.78 µM in the assay with MOB1B (tags cleaved); 2.3 µM in the assay with MOB3C; 2.6 µM in the assay with MOB3B; 2.9 µM in the assay with MOB3A. The equilibrium dissociation constant (Kd) in the assay with yeast Mob1 [7] stood at 29 µM; with MOB1A wild-type [8], 0.8 µM.

For orientation: Kd means the concentration at which binding is half-saturated. A low value points to tighter binding.
